Read-outs that look alike come from different tables or passages of the source.
How the values were obtained:
[1] = target: T1, murine LRIG1.ECD.His recombinant protein (mouse, UniProt P70193 35-796); assay: SPR
T1 sequence (looked up): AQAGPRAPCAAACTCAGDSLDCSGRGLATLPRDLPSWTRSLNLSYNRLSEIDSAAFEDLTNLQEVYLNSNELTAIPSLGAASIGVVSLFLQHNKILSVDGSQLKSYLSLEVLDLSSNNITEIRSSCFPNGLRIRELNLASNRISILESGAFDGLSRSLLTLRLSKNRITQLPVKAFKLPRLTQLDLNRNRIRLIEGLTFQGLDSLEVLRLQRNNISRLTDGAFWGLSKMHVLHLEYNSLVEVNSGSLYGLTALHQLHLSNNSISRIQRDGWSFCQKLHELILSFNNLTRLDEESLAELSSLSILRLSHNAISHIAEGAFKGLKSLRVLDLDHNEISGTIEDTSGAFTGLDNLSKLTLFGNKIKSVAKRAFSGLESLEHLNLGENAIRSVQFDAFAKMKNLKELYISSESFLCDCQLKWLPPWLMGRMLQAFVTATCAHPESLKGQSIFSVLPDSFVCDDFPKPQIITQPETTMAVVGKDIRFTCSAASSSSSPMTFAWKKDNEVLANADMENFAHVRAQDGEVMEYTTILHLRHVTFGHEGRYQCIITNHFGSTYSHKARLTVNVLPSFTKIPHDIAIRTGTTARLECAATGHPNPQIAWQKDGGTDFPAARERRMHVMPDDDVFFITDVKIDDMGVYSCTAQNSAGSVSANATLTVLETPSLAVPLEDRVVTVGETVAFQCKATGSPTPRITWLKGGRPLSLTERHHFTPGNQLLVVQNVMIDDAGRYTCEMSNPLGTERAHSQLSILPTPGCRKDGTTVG

[2] = target: T1, murine LRIG1.ECD.His recombinant protein; assay: SPR; remark: listed apart in the source

B1: murine VISTA.Fc recombinant protein (VISTA.ECD) (Fc fusion, UniProt Q9D659 33-191, looked up)
chain: FKVTTPYSLYVCPEGQNATLTCRILGPVSKGHDVTIYKTWYLSSRGEVQMCKEHRPIRNFTLQHLQHHGSHLKANASHDQPQKHGLELASDHHGNFSITLRNVTPRDSGLYCCLVIELKNHHPEQRFYGSMELQVQAGKGSGSTCMASNEQDSDSITAA
With B1 the Kd [1] was 3.44 nM and the Kd [2] was 1.2 nM.
